Assay results from ChEMBL document CHEMBL2074015, “Effect of ionization on the variable uptake of valacyclovir via the human intestinal peptide transporter (hPepT1) in CHO cells” (Biopharm Drug Dispos, 2000).

Columns and labels:
Settings in all cases: CHO
[1] = substrate: CC(C)[C@H](N)C(=O)OCCOCn1cnc2c(=O)nc(N)[nH]c21
Description: TP_TRANSPORTER: uptake (pH 7.9) in PEPT1-expressing CHO cells

[2] = substrate: CC(C)[C@H](N)C(=O)OCCOCn1cnc2c(=O)nc(N)[nH]c21; remark: listed apart in the source
Description: TP_TRANSPORTER: uptake (pH 7.5) in PEPT1-expressing CHO cells

[3] = substrate: CC(C)[C@H](N)C(=O)OCCOCn1cnc2c(=O)nc(N)[nH]c21; remark: listed apart in the source
Description: TP_TRANSPORTER: uptake (pH 6.8) in PEPT1-expressing CHO cells

[4] = substrate: CC(C)[C@H](N)C(=O)OCCOCn1cnc2c(=O)nc(N)[nH]c21; remark: listed apart in the source
Description: TP_TRANSPORTER: uptake (pH 6.2) in PEPT1-expressing CHO cells

[5] = substrate: CC(C)[C@H](N)C(=O)OCCOCn1cnc2c(=O)nc(N)[nH]c21; remark: listed apart in the source
Description: TP_TRANSPORTER: uptake (pH 5.5) in PEPT1-expressing CHO cells

B1: Solute carrier family 15 member 1 (Homo sapiens), P46059 (protein)
chain: MGMSKSHSFFGYPLSIFFIVVNEFCERFSYYGMRAILILYFTNFISWDDNLSTAIYHTFVALCYLTPILGALIADSWLGKFKTIVSLSIVYTIGQAVTSVSSINDLTDHNHDGTPDSLPVHVVLSLIGLALIALGTGGIKPCVSAFGGDQFEEGQEKQRNRFFSIFYLAINAGSLLSTIITPMLRVQQCGIHSKQACYPLAFGVPAALMAVALIVFVLGSGMYKKFKPQGNIMGKVAKCIGFAIKNRFRHRSKAFPKREHWLDWAKEKYDERLISQIKMVTRVMFLYIPLPMFWALFDQQGSRWTLQATTMSGKIGALEIQPDQMQTVNAILIVIMVPIFDAVLYPLIAKCGFNFTSLKKMAVGMVLASMAFVVAAIVQVEIDKTLPVFPKGNEVQIKVLNIGNNTMNISLPGEMVTLGPMSQTNAFMTFDVNKLTRINISSPGSPVTAVTDDFKQGQRHTLLVWAPNHYQVVKDGLNQKPEKGENGIRFVNTFNELITITMSGKVYANISSYNASTYQFFPSGIKGFTISSTEIPPQCQPNFNTFYLEFGSAYTYIVQRKNDSCPEVKVFEDISANTVNMALQIPQYFLLTCGEVVFSVTGLEFSYSQAPSNMKSVLQAGWLLTVAVGNIIVLIVAGAGQFSKQWAEYILFAALLLVVCVIFAIMARFYTYINPAEIEAQFDEDEKKNRLEKSNPYFMSGANSQKQM
Km [1]: 2.2 mM | Km [2]: 2.7 mM | Km [3]: 5.4 mM | Km [4]: 6.6 mM | Km [5]: 7.4 mM
